Experimental data as given in patent publication US20260049140A1 (JANUX THERAPEUTICS, published 2026).
Ends that are not written are not given here.

Key:
[1] = biological target: T1, human CD3ε-biotin (human, UniProt P07766 23-126, limits assumed, biotinylated (site not stated)); assay: BLI (Octet), human CD3ε-biotin 10 nM on sensor, 50 nM TCE
T1 construct: also called CD3E-bio; CD3E-biotin

[2] = biological target: T2, Cyno CD3 (Antigen was biotinylated for capture on the plate (per card); site of biotin and any vendor tag not stated in the passages seen.); assay: Cyno CD3 binding ELISA, TCE titrated
T2 construct: also called cynomolgus CD3
T2 chain: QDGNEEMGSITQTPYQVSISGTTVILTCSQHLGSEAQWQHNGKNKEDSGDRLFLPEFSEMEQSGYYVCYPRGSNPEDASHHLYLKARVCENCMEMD

[3] = biological target: T3, human TROP2-biotin (human, UniProt P09758 27-274, limits assumed, biotinylated (site not stated)); assay: ELISA, biotinylated TROP2 captured on neutravidin plate, TCE titrated
T3 construct: also called hTROP2-Biotin; Biotinylated TROP2
T3 sequence (looked up): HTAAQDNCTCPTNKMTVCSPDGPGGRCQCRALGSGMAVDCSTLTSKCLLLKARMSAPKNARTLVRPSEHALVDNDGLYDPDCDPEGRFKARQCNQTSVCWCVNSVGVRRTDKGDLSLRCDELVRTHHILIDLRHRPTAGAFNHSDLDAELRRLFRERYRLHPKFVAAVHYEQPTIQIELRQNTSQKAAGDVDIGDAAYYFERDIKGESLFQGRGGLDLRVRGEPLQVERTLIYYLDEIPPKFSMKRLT

[4] = biological target: T1, human CD3ε-biotin; assay: BLI (Octet), summary table
[5] = biological target: T4, TCE-19; assay: competition ELISA, peptide titrated vs TCE binding to captured CD3
T4 construct: anti-CD3 scFv W233A; anti-TROP2 Fab wt; also called 3091

[6] = biological target: T5, TCE-1; assay: competition ELISA: peptide titrated and pre-incubated with a constant concentration of TCE-1; TCE-1 bound to plate-captured biotinylated CD3 is detected (blocked ligand: CD3)
T5 construct: anti-CD3 scFv wt fused to anti-TROP2 Fab HC wt

[7] = biological target: T6, TCE-15; assay: competition ELISA, peptide titrated vs TCE binding to captured CD3
T6 construct: anti-CD3 scFv W112A; anti-TROP2 Fab wt; also called 3087

B1: TCE-14 (anti-CD3 scFv Y111A; anti-TROP2 HC wt) (bispecific antibody)
light: DIQLTQSPSSLSASVGDRVSITCKASQDVSIAVAWYQQKPGKAPKLLIYSASYRYTGVPDRFSGSGSGTDFTLTISSLQPEDFAVYYCQQHYITPLTFGAGTKVEIKRTVAAPSVFIFPPSDEQLKSGTASVVCLLNNFYPREAKVQWKVDNALQSGNSQESVTEQDSKDSTYSLSSTLTLSKADYEKHKVYACEVTHQGLSSPVTKSFNRGEC
heavy: not shown
notes: scFv-Fab; the entry already carries the mutation; also called 3086
- Response [1]: -0.0009

B2: TCE-29 (anti-CD3 scFv wt; anti-TROP2 (F108A) HC) (bispecific antibody)
light: DIQLTQSPSSLSASVGDRVSITCKASQDVSIAVAWYQQKPGKAPKLLIYSASYRYTGVPDRFSGSGSGTDFTLTISSLQPEDFAVYYCQQHYITPLTFGAGTKVEIKRTVAAPSVFIFPPSDEQLKSGTASVVCLLNNFYPREAKVQWKVDNALQSGNSQESVTEQDSKDSTYSLSSTLTLSKADYEKHKVYACEVTHQGLSSPVTKSFNRGEC
heavy: not shown
notes: scFv-Fab; the entry already carries the mutation
- EC50 [2]: 0.184 nM
- EC50 [3]: 1.15 nM

B3: TCE-21 (anti-CD3 scFv S235A; anti-TROP2 HC wt) (bispecific antibody)
light: DIQLTQSPSSLSASVGDRVSITCKASQDVSIAVAWYQQKPGKAPKLLIYSASYRYTGVPDRFSGSGSGTDFTLTISSLQPEDFAVYYCQQHYITPLTFGAGTKVEIKRTVAAPSVFIFPPSDEQLKSGTASVVCLLNNFYPREAKVQWKVDNALQSGNSQESVTEQDSKDSTYSLSSTLTLSKADYEKHKVYACEVTHQGLSSPVTKSFNRGEC
heavy: not shown
notes: as for B2
- CD3 Octet response [4]: 0.68
- Kd [4]: 3.41 nM
- Kd [1]: 3.41 nM
- Response [1]: 0.682

B4: TCE-30 (anti-CD3 scFv H101A; anti-TROP2 (F108A) HC) (bispecific antibody)
light: DIQLTQSPSSLSASVGDRVSITCKASQDVSIAVAWYQQKPGKAPKLLIYSASYRYTGVPDRFSGSGSGTDFTLTISSLQPEDFAVYYCQQHYITPLTFGAGTKVEIKRTVAAPSVFIFPPSDEQLKSGTASVVCLLNNFYPREAKVQWKVDNALQSGNSQESVTEQDSKDSTYSLSSTLTLSKADYEKHKVYACEVTHQGLSSPVTKSFNRGEC
heavy: not shown
notes: scFv-Fab; the entry already carries the mutations
- EC50 [3]: 1.28 nM

B5: TCE-35 (anti-CD3 scFv wt; anti-TROP2 (D109A) HC) (bispecific antibody)
light: DIQLTQSPSSLSASVGDRVSITCKASQDVSIAVAWYQQKPGKAPKLLIYSASYRYTGVPDRFSGSGSGTDFTLTISSLQPEDFAVYYCQQHYITPLTFGAGTKVEIKRTVAAPSVFIFPPSDEQLKSGTASVVCLLNNFYPREAKVQWKVDNALQSGNSQESVTEQDSKDSTYSLSSTLTLSKADYEKHKVYACEVTHQGLSSPVTKSFNRGEC
heavy: not shown
notes: as for B2
- EC50 [3]: 1.07 nM

B6: TCE-20 (anti-CD3 scFv Y234A; anti-TROP2 HC wt) (bispecific antibody)
light: DIQLTQSPSSLSASVGDRVSITCKASQDVSIAVAWYQQKPGKAPKLLIYSASYRYTGVPDRFSGSGSGTDFTLTISSLQPEDFAVYYCQQHYITPLTFGAGTKVEIKRTVAAPSVFIFPPSDEQLKSGTASVVCLLNNFYPREAKVQWKVDNALQSGNSQESVTEQDSKDSTYSLSSTLTLSKADYEKHKVYACEVTHQGLSSPVTKSFNRGEC
heavy: not shown
notes: as for B2
- CD3 Octet response [4]: 0.67
- CD3 t1/2 [4]: 1.66 min
- Kd [4]: 11.1 nM
- Kd [1]: 11.1 nM
- Response [1]: 0.674

B7: TCE-28 (anti-CD3 scFv N30Q, I109V, G172A, V231A; anti-TROP2 HC wt) (bispecific antibody)
light: DIQLTQSPSSLSASVGDRVSITCKASQDVSIAVAWYQQKPGKAPKLLIYSASYRYTGVPDRFSGSGSGTDFTLTISSLQPEDFAVYYCQQHYITPLTFGAGTKVEIKRTVAAPSVFIFPPSDEQLKSGTASVVCLLNNFYPREAKVQWKVDNALQSGNSQESVTEQDSKDSTYSLSSTLTLSKADYEKHKVYACEVTHQGLSSPVTKSFNRGEC
heavy: not shown
notes: scFv-Fab; the entry already carries the mutations; also called 3100
- Kd [1]: 9.11 nM
- Response [1]: 0.931

B8: TCE-18 (anti-CD3 scFv L232A; anti-TROP2 HC wt) (bispecific antibody)
light: DIQLTQSPSSLSASVGDRVSITCKASQDVSIAVAWYQQKPGKAPKLLIYSASYRYTGVPDRFSGSGSGTDFTLTISSLQPEDFAVYYCQQHYITPLTFGAGTKVEIKRTVAAPSVFIFPPSDEQLKSGTASVVCLLNNFYPREAKVQWKVDNALQSGNSQESVTEQDSKDSTYSLSSTLTLSKADYEKHKVYACEVTHQGLSSPVTKSFNRGEC
heavy: not shown
notes: as for B2
- CD3 Octet response [4]: 0.66
- CD3 t1/2 [4]: 2.64 min
- Kd [4]: 8.39 nM
- Kd [1]: 8.39 nM
- Response [1]: 0.663

B9: TCE-25 (anti-CD3 scFv V239A; anti-TROP2 HC wt) (bispecific antibody)
light: DIQLTQSPSSLSASVGDRVSITCKASQDVSIAVAWYQQKPGKAPKLLIYSASYRYTGVPDRFSGSGSGTDFTLTISSLQPEDFAVYYCQQHYITPLTFGAGTKVEIKRTVAAPSVFIFPPSDEQLKSGTASVVCLLNNFYPREAKVQWKVDNALQSGNSQESVTEQDSKDSTYSLSSTLTLSKADYEKHKVYACEVTHQGLSSPVTKSFNRGEC
heavy: not shown
notes: as for B2
- CD3 Octet response [4]: 0.74
- CD3 t1/2 [4]: 4.26 min
- Response [1]: 0.742

B10: TCE-24 (anti-CD3 scFv W238A; anti-TROP2 HC wt) (bispecific antibody)
light: DIQLTQSPSSLSASVGDRVSITCKASQDVSIAVAWYQQKPGKAPKLLIYSASYRYTGVPDRFSGSGSGTDFTLTISSLQPEDFAVYYCQQHYITPLTFGAGTKVEIKRTVAAPSVFIFPPSDEQLKSGTASVVCLLNNFYPREAKVQWKVDNALQSGNSQESVTEQDSKDSTYSLSSTLTLSKADYEKHKVYACEVTHQGLSSPVTKSFNRGEC
heavy: not shown
notes: scFv-Fab; the entry already carries the mutation; also called 3096
- CD3 Octet response [4]: 0.07
- Kd [4]: 31 nM
- Kd [1]: 31 nM
- Response [1]: 0.0683

B11: TCE-17 (anti-CD3 scFv V231A; anti-TROP2 HC wt) (bispecific antibody)
light: DIQLTQSPSSLSASVGDRVSITCKASQDVSIAVAWYQQKPGKAPKLLIYSASYRYTGVPDRFSGSGSGTDFTLTISSLQPEDFAVYYCQQHYITPLTFGAGTKVEIKRTVAAPSVFIFPPSDEQLKSGTASVVCLLNNFYPREAKVQWKVDNALQSGNSQESVTEQDSKDSTYSLSSTLTLSKADYEKHKVYACEVTHQGLSSPVTKSFNRGEC
heavy: not shown
notes: as for B2
- CD3 t1/2 [4]: 2.96 min
- Kd [4]: 6.26 nM
- Kd [1]: 6.26 nM

B12: TCE-19 (anti-CD3 scFv W233A; anti-TROP2 HC wt) (bispecific antibody)
light: DIQLTQSPSSLSASVGDRVSITCKASQDVSIAVAWYQQKPGKAPKLLIYSASYRYTGVPDRFSGSGSGTDFTLTISSLQPEDFAVYYCQQHYITPLTFGAGTKVEIKRTVAAPSVFIFPPSDEQLKSGTASVVCLLNNFYPREAKVQWKVDNALQSGNSQESVTEQDSKDSTYSLSSTLTLSKADYEKHKVYACEVTHQGLSSPVTKSFNRGEC
heavy: not shown
notes: scFv-Fab; the entry already carries the mutation; also called 3091
- CD3 t1/2 [4]: 6.45 min
- Kd [4]: 12.3 nM
- Kd [1]: 12.3 nM
- Response [1]: 0.414

B13: TCE-23 (anti-CD3 scFv R237A; anti-TROP2 HC wt) (bispecific antibody)
light: DIQLTQSPSSLSASVGDRVSITCKASQDVSIAVAWYQQKPGKAPKLLIYSASYRYTGVPDRFSGSGSGTDFTLTISSLQPEDFAVYYCQQHYITPLTFGAGTKVEIKRTVAAPSVFIFPPSDEQLKSGTASVVCLLNNFYPREAKVQWKVDNALQSGNSQESVTEQDSKDSTYSLSSTLTLSKADYEKHKVYACEVTHQGLSSPVTKSFNRGEC
heavy: not shown
notes: as for B2
- CD3 Octet response [4]: 0.73
- CD3 t1/2 [4]: 2.67 min
- Kd [4]: 6.51 nM
- Kd [1]: 6.51 nM
- Response [1]: 0.728

B14: TCE-22 (anti-CD3 scFv N236A; anti-TROP2 HC wt) (bispecific antibody)
light: DIQLTQSPSSLSASVGDRVSITCKASQDVSIAVAWYQQKPGKAPKLLIYSASYRYTGVPDRFSGSGSGTDFTLTISSLQPEDFAVYYCQQHYITPLTFGAGTKVEIKRTVAAPSVFIFPPSDEQLKSGTASVVCLLNNFYPREAKVQWKVDNALQSGNSQESVTEQDSKDSTYSLSSTLTLSKADYEKHKVYACEVTHQGLSSPVTKSFNRGEC
heavy: not shown
notes: as for B2
- CD3 Octet response [4]: 0.65
- CD3 t1/2 [4]: 2.45 min
- Response [1]: 0.65

B15: Peptide-3 (peptide)
peptide: VYCGPEFDESVGCM
modifications: cysteine pairing not given here; also: biotinylated when captured in ELISA
notes: also called 1443
- IC50 [5]: > 100000 nM

B16: Peptide-9 (peptide)
peptide: VYCGPEFDESVGCA
modifications: cysteine pairing not given here; also: biotinylated when captured in binding ELISA
notes: also called 1566
- IC50 [5]: > 100000 nM

B17: Peptide-8 (peptide)
peptide: AYCGPEFDESVGCM
modifications: cysteine pairing not given here; also: biotinylated when captured in binding ELISA
notes: also called 1555
- IC50 [5]: > 100000 nM
- IC50 (read off the curve) [6]: ~400 nM

B18: Peptide-2 (peptide)
peptide: GSQCLGPEWEVCPY
modifications: cysteine pairing not given here; also: biotinylated when captured in ELISA
notes: also called 1419
- IC50 [7]: > 100000 nM
- IC50 [5]: > 100000 nM
- IC50 (read off the curve) [6]: ~300 nM

B19: Peptide-10 (peptide)
peptide: ASQCLGPEWEVCPY
modifications: cysteine pairing not given here; also: biotinylated when captured in ELISA
notes: also called 1594
- IC50 [5]: > 100000 nM
- IC50 (read off the curve) [6]: ~200 nM
